The labels stand for the following.
B1: CPEB3 Ribozyme (parent)
chain: GGGGGCCACAGCAGAAGCGUUCACGUCGCGGCCCCUGUCAGAUUCUGGUGAAUCUGCGAAUUCUGCUGU

Variants of B1 are the subject of the series. Description: self-cleavage, relative activity (ratio to wild type); higher = more cleavage; co-transcriptional.
Turning to A10U C45A, the self-cleavage came out at 0.998. On to A10U C45U, for which the self-cleavage is 0.958. Then G11C A15U, with 0.188; and G11C A15C, with 0.497.

As to G11A U62C, the self-cleavage was found to be 0.391. Then G11A U62A, with 0.537. For the variant A10U C63A, the self-cleavage amounted to 0.825.

With A10U C63G, the self-cleavage worked out at 0.591.

Regarding A10U C12G, the self-cleavage amounted to 0.859. As for G11A A40C, the self-cleavage amounted to 0.14. Consider G11A A13U, for which the self-cleavage was 0.186. With A10U C35U, the self-cleavage was determined as 0.976. As to G11C G50A, the self-cleavage is 0.826. Consider G11C G50U, for which the self-cleavage came to 0.867. Consider G11C C57G, for which the self-cleavage turned out to be 0.284. With G11C C57U, the self-cleavage worked out at 0.238. Consider G11A G19U, for which the self-cleavage was determined as 0.088. Consider G11A G19C, for which the self-cleavage was 0.133.

As for G11C A16G, the self-cleavage worked out at 0.471. Next, G11A U69A: 0.973. Then G11A U69G, with 1.01; and G11C C45A, with 0.757; and G11C C45U, with 0.804. For the variant G11A A16G, the self-cleavage worked out at 0.575. Next, G11A A16U: 0.352; G11A A16C: 0.0873. G11C C34U: the self-cleavage was determined as 0.901. Next, G11C C34A: 0.615; G11C C34G: 0.578. As to G11C U20C, the self-cleavage amounted to 0.158.

G11C U20A: the self-cleavage came out at 0.115.

Regarding A10U U62G, the self-cleavage was 0.896. On to A10U C22G, for which the self-cleavage came out at 0.174.

As for A10U C22U, the self-cleavage is 0.436. Regarding G11A U46G, the self-cleavage was determined as 0.93. With G11A U46A, the self-cleavage is 0.932. Next, G11A U46C: 0.91.

Consider A10U U67C, for which the self-cleavage was 1. Next, G11C G31A: 0.693.

G11C G56A: the self-cleavage stood at 0.564.

With G11C G56U, the self-cleavage was 0.359. Next, A10U G58C: 1.02; A10U G58U: 0.984; G11A U67C: 0.996. Then G11A U67G, with 0.98. Next, G11A G30C: 0.672. Consider G11A G30U, for which the self-cleavage was determined as 0.32. G11A G30A: the self-cleavage was 0.663.

On to G11C G68C, for which the self-cleavage was determined as 0.823. Regarding G11C G68A, the self-cleavage is 0.907. Next, A10U C33U: 0.971; A10U C33G: 0.922; A10U C33A: 0.977. On to G11A C54A, for which the self-cleavage is 0.368. Take G11A C54U: the self-cleavage came out at 0.886. Next, G11A C54G: 0.426; G11C U55C: 0.243; G11C U62G: 0.251. Next, G11C U62C: 0.402. Then G11C U62A, with 0.409. As for G11U A13C, the self-cleavage is 0.146. As to G11U A13G, the self-cleavage worked out at 0.527.

For G11U A13U, the self-cleavage came out at 0.184. For A10U A60U, the self-cleavage was found to be 0.58.

For the variant A10U A60C, the self-cleavage was 0.384.

Regarding G11C G37A, the self-cleavage turned out to be 0.217.

For G11C G37C, the self-cleavage stood at 0.103. G11C C35G: the self-cleavage was 0.209. Consider A10U U38C, for which the self-cleavage was found to be 0.99. Turning to A10U U38G, the self-cleavage worked out at 0.154. Next, A10U U38A: 0.959; G11A G47A: 0.942; G11A G47U: 0.937. Then G11A G47C, with 0.895; and G11C A59U, with 0.36; and G11C A59C, with 0.324.

A10U C27G: the self-cleavage came to 0.17. On to G11C A51U, for which the self-cleavage came out at 0.621. In the case of G11C A51C, the self-cleavage was 0.624. Next, G11C A51G: 0.73; G11A A42C: 0.544; G11A A42U: 0.548. Next, G11A A42G: 0.586; A10U G68C: 1.05. Next, A10U A52G: 1.03; G11A U36G: 0.131; G11A U36A: 0.211. Take G11A U36C: the self-cleavage stood at 0.727. In the case of G11C G48A, the self-cleavage was found to be 0.921. As to G11C G48C, the self-cleavage was 0.963. Then G11A U64G, with 0.661. Then G11A U64C, with 0.513; and G11A U64A, with 0.655. As to A10U U49C, the self-cleavage came out at 1. On to A10U U49G, for which the self-cleavage is 1.01. Next, A10U U49A: 0.989. Turning to G11C G14C, the self-cleavage stood at 0.0758.

With G11C G14U, the self-cleavage is 0.172. For the variant G11C G14A, the self-cleavage amounted to 0.0859.

For G11A G17A, the self-cleavage turned out to be 0.119. For G11A G17C, the self-cleavage was determined as 0.122. Then G11A G17U, with 0.142. Then A10U C29U, with 0.361; and A10U C29G, with 0.431. Then A10U U53G, with 0.902; and A10U U53A, with 0.981. Regarding G11C U49A, the self-cleavage was determined as 0.882. Take G11C G47U: the self-cleavage came out at 0.916. Turning to G11C G47A, the self-cleavage was found to be 0.907. Take G11C G47C: the self-cleavage amounted to 0.896.

In the case of G11A G48U, the self-cleavage came to 0.885. On to G11A G48C, for which the self-cleavage was 0.951.

As for G11C G17C, the self-cleavage was 0.143. As to G11C G17U, the self-cleavage came to 0.144. Next, A10U C39G: 0.913; A10U C39U: 0.984.

In the case of A10U C39A, the self-cleavage was 0.84. Take G11C C54G: the self-cleavage worked out at 0.261.

Consider G11C C54U, for which the self-cleavage is 0.618.

As to G11A U21C, the self-cleavage is 0.633. Next, G11A U21A: 0.875; G11A U55G: 0.317; G11A U55A: 0.348.

Consider G11A C34U, for which the self-cleavage came to 0.93. In the case of G11U, the self-cleavage was 0.905. For G11C, the self-cleavage was found to be 0.872. Next, G11A: 0.932; G11A C18G: 0.106; G11A C18A: 0.107.

For G11A C18U, the self-cleavage is 0.278. For G11A C45G, the self-cleavage is 0.859.

For the variant G11C C33G, the self-cleavage worked out at 0.507. Next, G11C C12A: 0.653. Then G11C C29U, with 0.12; and G11C C29G, with 0.139. As to G11C C29A, the self-cleavage is 0.181.

As to G11C U38G, the self-cleavage amounted to 0.113. Then G11C U38A, with 0.729.

Turning to G11A U53G, the self-cleavage is 0.622. Then G11A U53C, with 0.352.

Turning to A10U U55G, the self-cleavage came out at 0.888. Consider A10U U55A, for which the self-cleavage came out at 0.888. On to G11A C66U, for which the self-cleavage came out at 0.967. Then G11A G31U, with 0.599; and G11A G31C, with 0.155; and A10U C34G, with 1.01. Then A10U C34A, with 0.983; and A10U C57G, with 0.307. On to A10U C57U, for which the self-cleavage worked out at 0.369.

As for A10U G14A, the self-cleavage came to 0.622.

For A10U G14C, the self-cleavage is 0.482. Then G11A G41C, with 0.278; and G11A G41A, with 0.276; and G11A G41U, with 0.342. Next, G11A C63A: 0.75.

For G11A C63G, the self-cleavage is 0.493. In the case of G11A C12G, the self-cleavage worked out at 0.788.

For G11A C12A, the self-cleavage was found to be 0.74. Then G11A A15G, with 0.807. Turning to G11A A15U, the self-cleavage is 0.574.

In the case of A10U U20C, the self-cleavage was found to be 0.232. For the variant A10U U20A, the self-cleavage stood at 0.122. Then A10U U20G, with 0.19; and G11C C39G, with 0.408; and G11C C39A, with 0.257. Then G11C C32U, with 0.82; and G11C C32A, with 0.601.
